Assay [1] has as its target FLAG tagged human Ang2 (Alexis Biochemicals) (human) (UniProt O15123). Description: AlphaScreen competition, periplasmic extract, FLAG-hAng2 / biotin-hTie2/Fc. On the technique in general: Alpha assays give light when donor and acceptor beads are brought close together.
The target of assay [2] is N-terminally FLAG-tagged mouse Ang2 (HEK293T conditioned medium) (mouse) (UniProt O35608). Description: competition ELISA, periplasmic extract, FLAG-mAng2 on mTie2/Fc. (In an ELISA, binding on a coated surface is turned into a signal by an enzyme label.)
In assay [3] the target is FLAG tagged human Ang2 (Alexis Biochemicals) (human) (UniProt O15123). Description: competition ELISA, periplasmic extract, FLAG-hAng2 on hTie2/Fc.
In assay [4] the target is FLAG-tagged human Ang2 (human) (UniProt O15123). Nature of the assay: competition ELISA: FLAG-hAng2 binding to coated hTie2-Fc.
For assay [5], the target named is FLAG tagged human Ang2 (Alexis Biochemicals) (human) (UniProt O15123). Description: competition ELISA, FLAG-hAng2 (0.02 nM) on coated hTie2/Fc.
Assay [6] shares this target. The assay is described as above. This is another data set of the same source.
Assay [7] deals with FLAG-tagged recombinant human Ang1 (Alexis Biochemicals) (human) (UniProt Q15389). Nature of the assay: competition ELISA, periplasmic extract, FLAG-hAng1 on hTie2/Fc.
Assay [8] addresses FLAG-tagged recombinant human Ang1 (human) (UniProt Q15389). Description: ratio of IC50s in hAng1/hTie2 and hAng2/hTie2 competition ELISA.
For assay [9], the target named is FLAG-tagged human Ang2 (human) (UniProt O15123). Nature of the assay: competition ELISA: FLAG-hAng2 binding to coated hTie2-Fc. This is another data set of the same source.

Where two headings read alike, the source gives them in different places. Bounds are passed on as bounds.

N-terminally FLAG-tagged mouse Ang2 (HEK293T conditioned medium) (mouse), sequence (O35608 19-496 limits assumed): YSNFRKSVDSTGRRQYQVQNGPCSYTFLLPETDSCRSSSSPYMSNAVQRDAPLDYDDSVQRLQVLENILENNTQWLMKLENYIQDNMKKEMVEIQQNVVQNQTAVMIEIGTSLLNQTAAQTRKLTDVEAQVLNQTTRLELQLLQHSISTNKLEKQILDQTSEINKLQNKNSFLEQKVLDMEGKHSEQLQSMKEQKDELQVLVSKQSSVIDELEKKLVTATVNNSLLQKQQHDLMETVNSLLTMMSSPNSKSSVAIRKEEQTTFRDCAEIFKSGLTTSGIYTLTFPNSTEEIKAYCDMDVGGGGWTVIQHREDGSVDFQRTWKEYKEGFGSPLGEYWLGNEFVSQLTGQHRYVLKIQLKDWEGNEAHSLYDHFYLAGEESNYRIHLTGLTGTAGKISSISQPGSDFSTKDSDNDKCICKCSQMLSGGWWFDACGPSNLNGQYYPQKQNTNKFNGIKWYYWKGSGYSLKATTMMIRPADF
FLAG-tagged human Ang2 (human), sequence (O15123 19-496): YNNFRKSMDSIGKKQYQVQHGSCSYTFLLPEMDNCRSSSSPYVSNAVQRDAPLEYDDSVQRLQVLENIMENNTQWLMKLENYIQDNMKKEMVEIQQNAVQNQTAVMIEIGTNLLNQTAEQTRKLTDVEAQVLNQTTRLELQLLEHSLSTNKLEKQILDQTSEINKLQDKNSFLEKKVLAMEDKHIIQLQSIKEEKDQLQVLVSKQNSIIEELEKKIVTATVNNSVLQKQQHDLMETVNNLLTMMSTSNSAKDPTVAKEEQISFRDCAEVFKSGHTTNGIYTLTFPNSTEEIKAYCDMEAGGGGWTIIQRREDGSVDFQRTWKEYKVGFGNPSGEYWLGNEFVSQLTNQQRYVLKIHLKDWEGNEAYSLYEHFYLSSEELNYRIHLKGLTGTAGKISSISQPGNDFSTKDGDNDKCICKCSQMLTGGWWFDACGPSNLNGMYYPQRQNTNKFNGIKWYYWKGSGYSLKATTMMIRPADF
FLAG tagged human Ang2 (Alexis Biochemicals) (human), sequence (O15123 19-496): as above
FLAG-tagged recombinant human Ang1 (human), sequence (Q15389 20-498 limits assumed): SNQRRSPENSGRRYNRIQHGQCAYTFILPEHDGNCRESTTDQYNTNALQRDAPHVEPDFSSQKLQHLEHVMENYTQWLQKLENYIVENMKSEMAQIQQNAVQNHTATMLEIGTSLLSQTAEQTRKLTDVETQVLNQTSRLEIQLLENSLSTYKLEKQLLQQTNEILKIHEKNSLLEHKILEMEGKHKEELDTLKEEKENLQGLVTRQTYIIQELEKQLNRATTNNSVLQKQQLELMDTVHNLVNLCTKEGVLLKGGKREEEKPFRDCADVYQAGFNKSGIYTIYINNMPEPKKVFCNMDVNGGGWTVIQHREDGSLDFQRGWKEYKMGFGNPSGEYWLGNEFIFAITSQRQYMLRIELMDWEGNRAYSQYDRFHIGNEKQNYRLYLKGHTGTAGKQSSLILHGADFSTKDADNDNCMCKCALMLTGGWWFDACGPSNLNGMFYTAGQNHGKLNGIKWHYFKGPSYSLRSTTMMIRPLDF
FLAG-tagged recombinant human Ang1 (Alexis Biochemicals) (human), sequence (Q15389 20-498 limits assumed): as above

B1: VHH 25G04 (VHH, not shown: small tags and cut ends)
VHH: EVQLVESGGGLVQPGGSLRLSCAASGFTFGSYDMSWVRQAPGKGPEWVSAINSRGGSTYYADSVKGRFTISRDNAKNTLYLQMNSLKPEDTAVYYCATDPYSLSYYGYPLYDYWGQGTQVTVSS
For the molecule B1, the values for the % inh in [1], in assay [2] and in assay [3] were 90%, 9% and 87%, respectively.

B2: VHH 1D01 (VHH, not shown: small tags and cut ends)
VHH: EVQLVESGGGLVQAGGSLRLSCAASGFTFDDYALGWFRQAAGKEREGVSCIRCSDGSTYYADSVKGRFTISSDNAKNTVYLQMNSLKPEDTAVYYCAASIVPRSKLEPYEYDAWGQGTQVTVSS
For B2, the half-inhibitory concentration (IC50) is 6.6 nM in assay [4], 3.4 nM in assay [5] and 6.2 nM in assay [6].

B3: VHH 12A08 (VHH, not shown: small tags and cut ends)
VHH: EVQLVESGRGLVQAGGSLRLSCAASGSIFSINAMLWYRQAPGKQRELVAAITSGGSTNYADSVKGRFTISRDNAKNTVYLQMNSLKPEDTAVYYCAADSDYSSDYYYWGQGTQVTVSS
On to B3, for which the % inh in assay [1] came out at 98%; in assay [2], 2%; in [3] it was 0%.

B4: VHH 29B08 (VHH, not shown: small tags and cut ends)
VHH: EVQLVESGGGVVQAGDSVRLSCAASGPTFRSYTMAWFRQTPGKERDIVAAISSSLGRTYYADSVKGRFQILRDNAKETVWLQMNSLKPEDTAVYICAASRSLNLAYTTKPYDYWGQGTQVTVSS
As for B4, the % inh in [1] turned out to be 60%; in assay [2], 63%; in assay [3], 112%.

B5: VHH 32H10 (VHH, not shown: small tags and cut ends)
VHH: EVQLVESGGGLVQAGGSLRLSCAASGFDFEDYDMGWFRQAPGKEREGVSYISSSDGSTYYTDSVKGRFTISSDNAKNTVYLQMNSLIPEDTAVYYCAARPWTRRVYGSSWLARSLDEYEYDYWGQGTQVTVSS
Turning to B5, the % inh in [1] was determined as 55%; in [7], 17%; in assay [3], 112%. For the same molecule, the IC50 in assay [6] turned out to be 4 nM.

B6: VHH 14A08 (VHH, not shown: small tags and cut ends)
VHH: EVQLVESGGGLVQAGGSLRLSCASSGFTFDDYAIGWFRQAPGKEREGVSCISSSDGSTYYADSVKGRFTISSDNAKNTVYLQMNSLKPEDTAVYYCAARPPFHSCSEYENDYWGQGTQVTVSS
Take B6: the % inh is 52% in assay [1] and 4% in [2].

B7: VHH 24B05 (VHH, not shown: small tags and cut ends)
VHH: EVQLVESGGGLVQPGGSLRLSCAASGFTLDYYAIGWFRQAPGKEWEGVSCISSSDGSTYYADSVKGRFTISRDNAKNTVYLQMNSLKPEDTAVYYCATDSIVCGSYYGMDYWGKGTQVTVSS
On to B7, for which the % inh came out at 97% in assay [1] and 102% in assay [3]. Further, the half-maximal inhibitory concentration (IC50) in [5] turned out to be 1 nM; in assay [6], 1.1 nM.

B8: VHH 28D10 (VHH, not shown: small tags and cut ends)
VHH: EVQLVESGGGLVQAGGSLRLSCAASGFTLDDYAIGWFRQAPGKEREGVSCIRDSDGSTYYADSVKGRFTISSDNDKNTVYLQMNSLKPEDTAVYYCAAVPAGRLRFGEQWYPLYEYDAWGQGTQVTVSS
As for B8, the % inh in [1] was found to be 89%; in assay [3], 118%. In addition, the hAng1/hAng2 ratio in assay [8] was above 5680. The half-maximal inhibitory concentration (IC50) stood at 1.8 nM in assay [9] and 1.3 nM in assay [6].

B9: VHH 00042 (VHH, not shown: small tags and cut ends)
VHH: EVQLVESGGGLVQPGGSLRLSCAASGFTLDDYAIGWFRQAPGKEREGVSSIRDNDGSTYYADSVKGRFTISSDNSKNTVYLQMNSLRPEDTAVYYCAAVPAGRLRFGEQWYPLYEYDAWGQGTLVTVSS
For the molecule B9, the IC50 in assay [4] turned out to be 0.646 nM; in [9] it was 0.7 nM.

B10: VHH 00055 (VHH, not shown: small tags and cut ends)
VHH: EVQLVESGGGLVQAGGSLRLSCAASGFTLDDYAIGWFRQAPGKEREGVSSIRDNGGSTYYADSVKGRFTISSDNDKNTVYLQMNSLKPEDTAVYYCAAVPAGRLRFGEQWYPLYEYDAWGQGTLVTVSS
In turn, B10 yielded an IC50 in assay [9] of 1.8 nM.

B11: VHH 00027 (VHH, not shown: small tags and cut ends)
VHH: EVQLVESGGGLVQAGGSLRLSCAASGFTLDDYAIGWFRQAPGKEREGVSSIRDNDGSTYYADSVKGRFTISSDNDKNTVYLQMNSLKPEDTAVYYCAAVPAGRLRFGEQWYPLYEYDAWGQGTLVTVSS
On to B11, for which the 50% inhibitory concentration (IC50) in assay [4] came to 0.672 nM; in assay [9], 0.7 nM.

B12: VHH 7G08 (VHH, not shown: small tags and cut ends)
VHH: EVQLVESGGGLVQPGGSLRLSCAASGFALDYYAIGWFRQVPGKEREGVSCISSSDGITYYVDSVKGRFTISRDNAKNTVYLQMNSLKPEDTAVYYCATDSGGYIDYDCMGLGYDYWGQGTQVTVSS
For B12, the IC50 is 0.07 nM in assay [5] and 0.04 nM in assay [6].

B13: VHH 37A09 (VHH, not shown: small tags and cut ends)
VHH: EVQLMESGGGLVQPGGSLRLSCAASGFALDYYAIGWFRQVPGKEREGVSCISSSDGITYYVDSVKGRFTISRDNAKNTVYLQMNSLKPGDTAVYYCATDSGGYIDYDCMGLGYDYWGQGTQVTVSS
As for B13, in [6], the IC50 was 0.1 nM.

B14: VHH 37F02 (VHH, not shown: small tags and cut ends)
VHH: EVQLVESGGGLVQPGGSLRLSCAASGFALDYYAIGWFRQAPGKEREGVSCISSSDGITYYVDSVKGRFTISRDNAKNTVYLQMNSLKPEDTAVYYCATDSGGYIDYDCMGLGYDYWGQGTQVTVSS
B14: in assay [8], the hAng1/hAng2 IC50 ratio was above 130000 and the hAng1/hAng2 ratio is above 130000. Moreover, the IC50 in [4] was determined as 0.077 nM. In assay [6], this molecule gave an IC50 of 0.08 nM.

B15: VHH 25D08 (VHH, not shown: small tags and cut ends)
VHH: EVQLVESGGGLVQAGGSLRLSCAASGFTFDDYAIGWFRQAPGKDLEGVSCISSSDGSTYYADSVKGRFTISSDNAKNTVYLQMNSLKPEDTAVYYCAAVNGLGPFSVPVPVYDFWGQGTQVTVSS
Consider B15, for which the % inh in [1] stood at 78%; in assay [7], 10%; in assay [2] it was 6%; in assay [3], 94%.

B16: VHH 13A02 (VHH, not shown: small tags and cut ends)
VHH: EVQLVESGGGLVQAGGSLRLSCAASGGTFSSYSMGWFRQAPGKEREFIAAINWNGDSTYYEDSVKGRFTVSRDNAKNTVYLQMNSLKPEDTAVYYCAATGWGRAYEQAYEYDVWGQGTQVTVSS
For B16, the values for the % inh in [1] and in assay [3] were 91% and 96%, respectively. Further, the figures for the IC50 in assay [5] and in [6] were 4.1 nM and 23 nM, respectively.

B17: VHH 25F01 (VHH, not shown: small tags and cut ends)
VHH: EVQLVESGGGLVQAGGSLRLSCAVSGLPFDDYVIGWFRQAPGKEREGVSCISSSDGSTYYADSVKGRFTISSDNAKNTVYLQMNSLKPEDTAAYYCAAGGPRINIATMTCSHDEYEYDYWGQGTQVTVSS
For the molecule B17, the % inh in [1] came to 67%; in assay [7], 14%; in [3], 85%. The half-maximal inhibitory concentration (IC50) in assay [5] was found to be 6.5 nM.

B18: VHH 11B07 (VHH, not shown: small tags and cut ends)
VHH: EVQLVESGGGLVQVGDSLRLSCAASGRTFSTYLMVGWFRQAPGKEREFAAGIWSSGDTAYADSVRGRFTISRDNAKNTVYLQMNSLKTEDTAVYYCAGSYDGNYYIPGFYKDWGQGTQVTVSS
Take B18: the half-inhibitory concentration (IC50) in assay [5] was 5.4 nM; in assay [6] it was 14 nM.

The IC50 is the concentration needed to halve the response being measured. High values mean lower potency, low ones higher potency.

The values above are taken from patent US20230203146A1.
